Measured values reported in the supplement of paper PMC5998384.

Assays:
HeLa Kyoto [1] = assay: solubility in G1/S (NP-40 vs SDS abundance) (log2 ratio); higher = more soluble; conditions: cell cycle stage: G1/S
HeLa Kyoto [2] = assay: solubility change mitosis vs G1/S (difference of NP-40 vs SDS log2 ratios) (log2 ratio difference); higher = more soluble in mitosis
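Wherever solubility change mitosis vs G1/S (difference of NP-40 vs SDS log2 ratios) is given: synchronized HeLa Kyoto cells (double thymidine block for G1/S, nocodazole release for mitosis), protein amounts in NP-40 versus SDS lysates quantified by mass spectrometry, three biological replicates.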
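Wherever solubility in G1/S (NP-40 vs SDS abundance) is given: HeLa Kyoto cells arrested at G1/S by double thymidine block, proteins quantified by TMT10plex mass spectrometry in mild NP-40 versus SDS extracts, three biological replicates.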

Substance | solubility in G1/S (log2) (HeLa Kyoto [1]) | solubility change mitosis (log2) (HeLa Kyoto [2])
MSDIVEKTLTALPGLFLQNQPGGGPAAAKASFSSRLGSLVRGITALTSKHEEEKLIQQELSSLKATVSAPTTTLKMMKECMVRLIYCEMLGYDASFGYIHAIKLAQQGNLLEKRVGYLAVSLFLHESHELLLLLVNTVVKDLQSTNLVEVCMALTVVSQIFPCEMIPAVLPLIEDKLQHSKEIVRRKAVLALYKFHLIAPNQVQHIHIKFRKALCDRDVGVMAASLHIYLRMIKENSSGYKDLTGSFVTILKQVVGGKLPVEFNYHSVPAPWLQIQLLRILGLLGKDDQRTSELMYDVLDESLRRAELNHNVTYAILFECVHTVYSIYPKSELLEKAAKCIGKFVLSPKINLKYLGLKALTYVIQQDPTLALQHQMTIIECLDHPDPIIKRETLELLYRITNAQNITVIVQKMLEYLHQSKEEYVIVNLVGKIAELAEKYAPDNAWFIQTMNAVFSVGGDVMHPDIPNNFLRLLAEGFDDETEDQQLRLYAVQSYLTLLDMENVFYPQRFLQVMSWVLGEYSYLLDKETPEEVIAKLYKLLMNDSVSSETKAWLIAAVTKLTSQAHSSNTVERLIHEFTISLDTCMRQHAFELKHLHENVELMKSLLPVDRSCEDLVVDASLSFLDGFVAEGLSQGAAPYKPPHQRQEEKLSQEKVLNFEPYGLSFSSSGFTGRQSPAGISLGSDVSGNSAETGLKETNSLKLEGIKKLWGKEGYLPKKESKTGDESGALPVPQESIMENVDQAITKKDQSQVLTQSKEEKEKQLLASSLFVGLGSESTINLLGKADTVSHKFRRKSKVKEAKSGETTSTHNMTCSSFSSLSNVAYEDDYYSNTLHDTGDKELKKFSLTSELLDSESLTELPLVEKFSYCSLSTPSLFANNNMEIFHPPQSTAASVAKESSLASSFLEETTEYIHSNAMEVCNNETISVSSYKIWKDDCLLMVWSVTNKSGLELKSADLEIFPAENFKVTEQPGCCLPVMEAESTKSFQYSVQIEKPFTEGNLTGFISYHMMDTHSAQLEFSVNLSLLDFIRPLKISSDDFGKLWLSFANDVKQNVKMSESQAALPSALKTLQQKLRLHIIEIIGNEGLLACQLLPSIPCLLHCRVHADVLALWFRSSCSTLPDYLLYQCQKVMEGS [AP4E1] | -0.402 | -0.0567
MDPDPQAGVQVGMRVVRGVDWKWGQQDGGEGGVGTVVELGRHGSPSTPDRTVVVQWDQGTRTNYRAGYQGAHDLLLYDNAQIGVRHPNIICDCCKKHGLRGMRWKCRVCLDYDLCTQCYMHNKHELAHAFDRYETAHSRPVTLSPRQGLPRIPLRGIFQGAKVVRGPDWEWGSQDGGEGKPGRVVDIRGWDVETGRSVASVTWADGTTNVYRVGHKGKVDLKCVGEAAGGFYYKDHLPRLGKPAELQRRVSADSQPFQHGDKVKCLLDTDVLREMQEGHGGWNPRMAEFIGQTGTVHRITDRGDVRVQFNHETRWTFHPGALTKHHSFWVGDVVRVIGDLDTVKRLQAGHGEWTDDMAPALGRVGKVVKVFGDGNLRVAVAGQRWTFSPSCLVAYRPEEDANLDVAERARENKSSLSVALDKLRAQKSDPEHPGRLVVEVALGNAARALDLLRRRPEQVDTKNQGRTALQVAAYLGQVELIRLLLQARAGVDLPDDEGNTALHYAALGNQPEATRVLLSAGCRADAINSTQSTALHVAVQRGFLEVVRALCERGCDVNLPDAHSDTPLHSAISAGTGASGIVEVLTEVPNIDVTATNSQGFTLLHHASLKGHALAVRKILARARQLVDAKKEDGFTALHLAALNNHREVAQILIREGRCDVNVRNRKLQSPLHLAVQQAHVGLVPLLVDAGCSVNAEDEEGDTALHVALQRHQLLPLVADGAGGDPGPLQLLSRLQASGLPGSAELTVGAAVACFLALEGADVSYTNHRGRSPLDLAAEGRVLKALQGCAQRFRERQAGGGAAPGPRQTLGTPNTVTNLHVGAAPGPEAAECLVCSELALLVLFSPCQHRTVCEECARRMKKCIRCQVVVSKKLRPDGSEVASAAPAPGPPRQLVEELQSRYRQMEERITCPICIDSHIRLVFQCGHGACAPCGSALSACPICRQPIRDRIQIFV [MIB2] | -0.12 | -0.0211
MAKDAGLIEANGELKVFIDQNLSPGKGVVSLVAVHPSTVNPLGKQLLPKTFGQSNVNIAQQVVIGTPQRPAASNTLVVGSPHTPSTHFASQNQPSDSSPWSAGKRNRKGEKNGKGLRHFSMKVCEKVQRKGTTSYNEVADELVAEFSAADNHILPNESAYDQKNIRRRVYDALNVLMAMNIISKEKKEIKWIGLPTNSAQECQNLEVERQRRLERIKQKQSQLQELILQQIAFKNLVQRNRHAEQQASRPPPPNSVIHLPFIIVNTSKKTVIDCSISNDKFEYLFNFDNTFEIHDDIEVLKRMGMACGLESGSCSAEDLKMARSLVPKALEPYVTEMAQGTVGGVFITTAGSTSNGTRFSASDLTNGADGMLATSSNGSQYSGSRVETPVSYVGEDDEEDDDFNENDEDD [TFDP1] | 0.136 | -0.176
MAEASSANLGSGCEEKRHEGSSSESVPPGTTISRVKLLDTMVDTFLQKLVAAGSYQRFTDCYKCFYQLQPAMTQQIYDKFIAQLQTSIREEISDIKEEGNLEAVLNALDKIVEEGKVRKEPAWRPSGIPEKDLHSVMAPYFLQQRDTLRRHVQKQEAENQQLADAVLAGRRQVEELQLQVQAQQQAWQALHREQRELVAVLREPE [PMF1] | 0.135 | 0.643
MAAVKASTSKATRPWYSHPVYARYWQHYHQAMAWMQSHHNAYRKAVESCFNLPWYLPSALLPQSSYDNEAAYPQSFYDHHVAWQDYPCSSSHFRRSGQHPRYSSRIQASTKEDQALSKEEEMETESDAEVECDLSNMEITEELRQYFAETERHREERRRQQQLDAERLDSYVNADHDLYCNTRRSVEAPTERPGERRQAEMKRLYGDSAAKIQAMEAAVQLSFDKHCDRKQPKYWPVIPLKF [GEMIN8] | 0.511 | 0.219
MNDISQKAEILLSSSKPVPKTYVPKLGKGDVKDKFEAMQRAREERNQRRSRDEKQRRKEQYIREREWNRRKQEIKEMLASDDEEDVSSKVEKAYVPKLTGTVKGRFAEMEKQRQEEQRKRTEEERKRRIEQDMLEKRKIQRELAKRAEQIEDINNTGTESASEEGDDSLLITVVPVKSYKTSGKMKKNFEDLEKEREEKERIKYEEDKRIRYEEQRPSLKEAKCLSLVMDDEIESEAKKESLSPGKLKLTFEELERQRQENRKKQAEEEARKRLEEEKRAFEEARRQMVNEDEENQDTAKIFKGYRPGKLKLSFEEMERQRREDEKRKAEEEARRRIEEEKKAFAEARRNMVVDDDSPEMYKTISQEFLTPGKLEINFEELLKQKMEEEKRRTEEERKHKLEMEKQEFEQLRQEMGEEEEENETFGLSREYEELIKLKRSGSIQAKNLKSKFEKIGQLSEKEIQKKIEEERARRRAIDLEIKEREAENFHEEDDVDVRPARKSEAPFTHKVNMKARFEQMAKAREEEEQRRIEEQKLLRMQFEQREIDAALQKKREEEEEEEGSIMNGSTAEDEEQTRSGAPWFKKPLKNTSVVDSEPVRFTVKVTGEPKPEITWWFEGEILQDGEDYQYIERGETYCLYLPETFPEDGGEYMCKAVNNKGSAASTCILTIESKN [NEXN] | -0.858 | 0.21
TTC28 | 0.0118 | -0.133
MAALGVLESDLPSAVTLLKNLQEQVMAVTAQVKSLTQKVQAGAYPTEKGLSFLEVKDQLLLMYLMDLTHLILDKASGGSLQGHDAVLRLVEIRTVLEKLRPLDQKLKYQIDKLIKTAVTGSLSENDPLRFKPHPSNMMSKLSSEDEEEDEAEDDQSEASGKKSVKGVSKKYVPPRLVPVHYDETEAEREKKRLERAKRRALSSSVIRELKEQYSDAPEEIRDARHPHVTRQSQEDQHRINYEESMMVRLSVSKREKGRRKRANVMSSQLHSLTHFSDISALTGGTVHLDEDQNPIKKRKKIPQKGRKKKGFRRRR [NGDN] | -1.83 | 0.93
MYTITKGPSKLVAQRRTGPTQQQVEGRLGELLKCRQPAPPTSQPPRAQPFAQPPGPWPLSSPGPRLVFNRVNGRRAPSTSPSFEGTQETYTVAHEENVRFVSEAWQQVQQQLDGGPAGEGGPRPVQYVERTPNPRLQNFVPIDLDEWWAQQFLARITSCS [FAM195A] | -0.457 | 0.195
MGNTTTKFRKALINGDENLACQIYENNPQLKESLDPNTSYGEPYQHNTPLHYAARHGMNKILGTFLGRDGNPNKRNVHNETSMHLLCMGPQIMISEGALHPRLARPTEDDFRRADCLQMILKWKGAKLDQGEYERAAIDAVDNKKNTPLHYAAASGMKACVELLVKHGGDLFAENENKDTPCDCAEKQHHKDLALNLESQMVFSRDPEAEEIEAEYAALDKREPYEGLRPQDLRRLKDMLIVETADMLQAPLFTAEALLRAHDWDREKLLEAWMSNPENCCQRSGVQMPTPPPSGYNAWDTLPSPRTPRTTRSSVTSPDEISLSPGDLDTSLCDICMCSISVFEDPVDMPCGHDFCRGCWESFLNLKIQEGEAHNIFCPAYDCFQLVPVDIIESVVSKEMDKRYLQFDIKAFVENNPAIKWCPTPGCDRAVRLTKQGSNTSGSDTLSFPLLRAPAVDCGKGHLFCWECLGEAHEPCDCQTWKNWLQKITEMKPEELVGVSEAYEDAANCLWLLTNSKPCANCKSPIQKNEGCNHMQCAKCKYDFCWICLEEWKKHSSSTGGYYRCTRYEVIQHVEEQSKEMTVEAEKKHKRFQELDRFMHYYTRFKNHEHSYQLEQRLLKTAKEKMEQLSRALKETEGGCPDTTFIEDAVHVLLKTRRILKCSYPYGFFLEPKSTKKEIFELMQTDLEMVTEDLAQKVNRPYLRTPRHKIIKAACLVQQKRQEFLASVARGVAPADSPEAPRRSFAGGTWDWEYLGFASPEEYAEFQYRRRHRQRRRGDVHSLLSNPPDPDEPSESTLDIPEGGSSSRRPGTSVVSSASMSVLHSSSLRDYTPASRSENQDSLQALSSLDEDDPNILLAIQLSLQESGLALDEETRDFLSNEASLGAIGTSLPSRLDSVPRNTDSPRAALSSSELLELGDSLMRLGAENDPFSTDTLSSHPLSEARSDFCPSSSDPDSAGQDPNINDNLLGNIMAWFHDMNPQSIALIPPATTEISADSQLPCIKDGSEGVKDVELVLPEDSMFEDASVSEGRGTQIEENPLEENILAGEAASQAGDSGNEAANRGDGSDVSSQTPQTSSDWLEQVHLV [ANKIB1] | 0.00548 | -0.221
SLC7A6 | -0.00617 | -0.122
MSAALLRRGLELLAASEAPRDPPGQAKPRGAPVKRPRKTKAIQAQKLRNSAKGKVPKSALDEYRKRECRDHLRVNLKFLTRTRSTVAESVSQQILRQNRGRKACDRPVAKTKKKKAEGTVFTEEDFQKFQQEYFGS [RPS19BP1] | -0.897 | 0.671
MGRAVKVLQLFKTLHRTRQQVFKNDARALEAARIKINEEFKNNKSETSSKKIEELMKIGSDVELLLRTSVIQGIHTDHNTLKLVPRKDLLVENVPYCDAPTQKQ [LYRM7] | 0.581 | 0.302
